Legend:
Test in all cases: holdup assay
Set-up in all cases: key: below the threshold = too weak to quantify, mostly under pKd 3.1 to 4
[1] = molecular target: T1, MPP7, Q5T2T1
T1 sequence (Q5T2T1 134-230, limits assumed, looked up): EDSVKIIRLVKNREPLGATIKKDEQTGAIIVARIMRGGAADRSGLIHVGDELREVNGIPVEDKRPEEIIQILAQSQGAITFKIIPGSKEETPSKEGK

[2] = molecular target: T2, RADIL, Q96JH8
T2 sequence (Q96JH8 971-1071, limits assumed, looked up): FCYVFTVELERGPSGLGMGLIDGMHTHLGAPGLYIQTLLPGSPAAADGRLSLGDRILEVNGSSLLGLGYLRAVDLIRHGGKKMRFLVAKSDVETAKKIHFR

[3] = molecular target: HTRA2, O43464
Chain of HTRA2, O43464 (O43464 355-458): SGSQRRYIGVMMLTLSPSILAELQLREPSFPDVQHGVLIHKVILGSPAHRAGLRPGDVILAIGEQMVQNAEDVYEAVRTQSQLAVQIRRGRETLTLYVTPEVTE

[4] = molecular target: T3, DFNB31_2, Q9P202
T3 sequence (Q9P202 274-371, limits assumed, looked up): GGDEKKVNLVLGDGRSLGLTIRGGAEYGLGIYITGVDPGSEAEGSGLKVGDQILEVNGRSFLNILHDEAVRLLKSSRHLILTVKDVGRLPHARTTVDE

[5] = molecular target: LAP2, Q96RT1
Chain of LAP2, Q96RT1 (Q96RT1 other isoform, or with tags, fused parts or gaps): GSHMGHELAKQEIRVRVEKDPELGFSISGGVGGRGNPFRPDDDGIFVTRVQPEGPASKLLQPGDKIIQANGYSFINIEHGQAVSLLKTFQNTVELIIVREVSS

[6] = molecular target: Inadl_1, Q8NI35
Chain of Inadl_1, Q8NI35 (Q8NI35 113-229): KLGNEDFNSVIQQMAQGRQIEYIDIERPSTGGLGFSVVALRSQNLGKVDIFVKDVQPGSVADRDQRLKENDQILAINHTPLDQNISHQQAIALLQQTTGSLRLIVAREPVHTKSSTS

[7] = molecular target: NOS1, P29475
Chain of NOS1, P29475 (P29475 9-101): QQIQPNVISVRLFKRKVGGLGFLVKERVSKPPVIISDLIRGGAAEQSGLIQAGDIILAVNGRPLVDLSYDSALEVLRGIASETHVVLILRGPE

[8] = molecular target: PICK1, Q9NRD5
Chain of PICK1, Q9NRD5 (Q9NRD5 17-115): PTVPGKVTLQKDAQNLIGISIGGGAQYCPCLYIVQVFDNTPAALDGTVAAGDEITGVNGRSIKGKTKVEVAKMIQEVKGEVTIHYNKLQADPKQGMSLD

[9] = molecular target: Inadl_4, Q8NI35
Chain of Inadl_4, Q8NI35 (Q8NI35 547-651): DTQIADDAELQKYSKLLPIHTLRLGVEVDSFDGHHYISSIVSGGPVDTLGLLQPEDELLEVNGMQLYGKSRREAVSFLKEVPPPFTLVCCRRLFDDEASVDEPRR

[10] = molecular target: T4, DFNB31_3, Q9P202
T4 sequence (Q9P202 811-907, limits assumed, looked up): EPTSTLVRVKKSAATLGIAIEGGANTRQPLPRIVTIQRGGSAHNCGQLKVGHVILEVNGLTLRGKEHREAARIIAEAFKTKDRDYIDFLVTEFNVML

[11] = molecular target: T5, DLG3_2, Q92796
T5 sequence (Q92796 221-321, limits assumed, looked up): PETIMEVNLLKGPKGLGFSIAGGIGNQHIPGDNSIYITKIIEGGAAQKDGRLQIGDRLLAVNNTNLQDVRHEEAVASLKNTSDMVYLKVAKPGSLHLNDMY

[12] = molecular target: MAGI2_2, Q86UL8
Chain of MAGI2_2, Q86UL8 (Q86UL8 410-522): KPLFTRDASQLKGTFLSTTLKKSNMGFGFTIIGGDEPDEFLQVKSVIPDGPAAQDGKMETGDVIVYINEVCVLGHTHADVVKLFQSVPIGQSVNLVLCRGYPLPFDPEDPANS

[13] = molecular target: Inadl_5, Q8NI35
Chain of Inadl_5, Q8NI35 (Q8NI35 673-780): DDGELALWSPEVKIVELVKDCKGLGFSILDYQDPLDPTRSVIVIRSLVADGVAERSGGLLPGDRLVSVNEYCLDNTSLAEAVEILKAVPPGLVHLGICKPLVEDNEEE

[14] = molecular target: T6, HTRA4, P83105
T6 sequence (P83105 378-476, limits assumed, looked up): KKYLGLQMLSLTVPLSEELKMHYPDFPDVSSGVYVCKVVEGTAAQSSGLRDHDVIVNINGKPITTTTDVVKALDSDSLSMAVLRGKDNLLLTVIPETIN

[15] = molecular target: MAGI2_5, Q86UL8
Chain of MAGI2_5, Q86UL8 (Q86UL8 915-1017): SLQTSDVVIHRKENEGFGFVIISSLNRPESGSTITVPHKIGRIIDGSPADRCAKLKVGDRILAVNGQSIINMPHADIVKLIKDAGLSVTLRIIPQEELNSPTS

[16] = molecular target: T7, LIN7C, Q9NUP9
T7 sequence (Q9NUP9 88-185, limits assumed, looked up): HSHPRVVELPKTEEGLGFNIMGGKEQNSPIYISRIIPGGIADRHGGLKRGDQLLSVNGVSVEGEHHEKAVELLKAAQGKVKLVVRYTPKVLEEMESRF

[17] = molecular target: IL16_3, Q14005
Chain of IL16_3, Q14005 (Q14005 1107-1207): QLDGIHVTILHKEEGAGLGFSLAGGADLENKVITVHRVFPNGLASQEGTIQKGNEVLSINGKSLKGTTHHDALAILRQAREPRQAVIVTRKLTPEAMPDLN

[18] = molecular target: T8, PDZD2_2, O15018
T8 sequence (O15018 329-429, limits assumed, looked up): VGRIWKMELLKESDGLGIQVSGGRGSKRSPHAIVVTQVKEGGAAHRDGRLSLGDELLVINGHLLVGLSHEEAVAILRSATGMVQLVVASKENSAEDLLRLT

[19] = molecular target: T9, PTPN13_1, Q12923
T9 sequence (Q12923 1088-1188, limits assumed, looked up): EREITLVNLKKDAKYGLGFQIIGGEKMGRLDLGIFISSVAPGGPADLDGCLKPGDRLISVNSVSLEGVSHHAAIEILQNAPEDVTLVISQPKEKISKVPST

[20] = molecular target: MAST1, Q9Y2H9
Chain of MAST1, Q9Y2H9 (Q9Y2H9 962-1065): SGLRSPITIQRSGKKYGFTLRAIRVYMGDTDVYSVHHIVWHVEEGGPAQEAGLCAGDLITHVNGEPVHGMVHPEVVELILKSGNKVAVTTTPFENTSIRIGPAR

[21] = molecular target: FRMPD2_3, Q68DX3
Chain of FRMPD2_3, Q68DX3 (Q68DX3 1073-1166): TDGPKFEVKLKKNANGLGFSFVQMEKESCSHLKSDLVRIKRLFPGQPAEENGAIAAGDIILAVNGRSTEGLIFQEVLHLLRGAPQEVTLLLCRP

[22] = molecular target: GRIP2_4, Q9C0E4
Chain of GRIP2_4, Q9C0E4 (Q9C0E4 446-548): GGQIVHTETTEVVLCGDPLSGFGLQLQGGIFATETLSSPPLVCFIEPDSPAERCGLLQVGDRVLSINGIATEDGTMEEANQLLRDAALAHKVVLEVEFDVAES

[23] = molecular target: T10, DLG3_3, Q92796
T10 sequence (Q92796 374-475, limits assumed, looked up): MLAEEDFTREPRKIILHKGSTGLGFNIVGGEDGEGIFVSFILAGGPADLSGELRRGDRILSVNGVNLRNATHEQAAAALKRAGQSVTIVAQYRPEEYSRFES

[24] = molecular target: Inadl_6, Q8NI35
Chain of Inadl_6, Q8NI35 (Q8NI35 1058-1167): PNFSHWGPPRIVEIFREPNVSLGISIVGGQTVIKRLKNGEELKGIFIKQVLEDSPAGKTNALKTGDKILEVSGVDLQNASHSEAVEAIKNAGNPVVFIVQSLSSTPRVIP

[25] = molecular target: SCRIB_3, Q14160
Chain of SCRIB_3, Q14160 (Q14160 999-1103): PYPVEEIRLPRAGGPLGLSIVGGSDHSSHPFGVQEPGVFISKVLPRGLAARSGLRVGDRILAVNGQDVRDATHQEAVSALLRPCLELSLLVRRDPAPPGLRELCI

[26] = molecular target: T11, TX1BP3, O14907
T11 sequence (O14907 10-122, limits assumed, looked up): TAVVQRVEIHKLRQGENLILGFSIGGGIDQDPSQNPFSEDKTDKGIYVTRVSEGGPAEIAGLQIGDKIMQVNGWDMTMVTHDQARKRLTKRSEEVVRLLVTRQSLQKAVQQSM

[27] = molecular target: DLG4_3, P78352
Chain of DLG4_3, P78352 (P78352 306-403): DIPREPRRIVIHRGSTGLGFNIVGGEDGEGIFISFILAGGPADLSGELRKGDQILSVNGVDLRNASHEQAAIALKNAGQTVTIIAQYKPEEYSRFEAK

[28] = modified: acetyl on K at position -1 from the C-terminal residue
[29] = modified: phospho on S at position -3 from the C-terminal residue
[30] = plain residues with an end cap or a label only (N-terminal biotin on a linker: ado-ado)

Binder: DEDQHTQITKV [PTEN_Ac, P60484]
- pKd [1, 28]: below the threshold
- pKd [2, 28]: 4.71
- pKd [3, 28]: below the threshold
- pKd [4, 28]: below the threshold
- pKd [5, 28]: 3.93
- pKd [6, 28]: 3.85
- pKd [7, 28]: 3.81
- pKd [8, 28]: 3.75
- pKd [9, 28]: below the threshold
- pKd [10, 28]: 4.25
- pKd [11, 28]: 4.56
- pKd [12, 28]: 3.77
- pKd [13, 28]: below the threshold
- pKd [14, 28]: 3.68
- pKd [15, 28]: 4.88
- pKd [16, 28]: below the threshold
- pKd [17, 28]: below the threshold
- pKd [18, 28]: 4.22
- pKd [19, 28]: below the threshold
- pKd [20, 28]: 4.66
- pKd [21, 28]: below the threshold
- pKd [22, 28]: below the threshold
- pKd [23, 28]: below the threshold
- pKd [24, 28]: 4.37
- pKd [25, 28]: 3.74
- pKd [26, 28]: 3.74
- pKd [27, 28]: below the threshold

Binder: RRVRKLPSTTL [RPS6KA1_-3P, Q15418]
- pKd [1, 29]: below the threshold
- pKd [2, 29]: below the threshold
- pKd [3, 29]: 3.75
- pKd [4, 29]: below the threshold
- pKd [5, 29]: below the threshold
- pKd [6, 29]: 3.66
- pKd [7, 29]: below the threshold
- pKd [8, 29]: below the threshold
- pKd [9, 29]: below the threshold
- pKd [10, 29]: below the threshold
- pKd [11, 29]: below the threshold
- pKd [12, 29]: 3.57
- pKd [13, 29]: below the threshold
- pKd [14, 29]: 3.72
- pKd [15, 29]: below the threshold
- pKd [16, 29]: below the threshold
- pKd [17, 29]: below the threshold
- pKd [18, 29]: below the threshold
- pKd [19, 29]: below the threshold
- pKd [20, 29]: below the threshold
- pKd [21, 29]: below the threshold
- pKd [22, 29]: below the threshold
- pKd [23, 29]: below the threshold
- pKd [24, 29]: below the threshold
- pKd [25, 29]: 4.35
- pKd [26, 29]: below the threshold
- pKd [27, 29]: below the threshold

Binder: TMQMSLKDLL [GLA, P06280]
- pKd [1, 30]: below the threshold
- pKd [2, 30]: below the threshold
- pKd [3, 30]: below the threshold
- pKd [4, 30]: below the threshold
- pKd [5, 30]: below the threshold
- pKd [6, 30]: below the threshold
- pKd [7, 30]: 3.73
- pKd [8, 30]: below the threshold
- pKd [9, 30]: below the threshold
- pKd [10, 30]: 4.07
- pKd [11, 30]: below the threshold
- pKd [12, 30]: below the threshold
- pKd [13, 30]: below the threshold
- pKd [14, 30]: below the threshold
- pKd [15, 30]: below the threshold
- pKd [16, 30]: below the threshold
- pKd [17, 30]: 3.5
- pKd [18, 30]: below the threshold
- pKd [19, 30]: below the threshold
- pKd [20, 30]: 4.03
- pKd [21, 30]: 3.58
- pKd [22, 30]: below the threshold
- pKd [23, 30]: 3.65
- pKd [24, 30]: below the threshold
- pKd [25, 30]: below the threshold
- pKd [26, 30]: below the threshold
- pKd [27, 30]: 3.55

Binder: LETREPTNTL [GRIP1, Q9Y3R0]
- pKd [1, 30]: below the threshold
- pKd [2, 30]: below the threshold
- pKd [3, 30]: below the threshold
- pKd [4, 30]: below the threshold
- pKd [5, 30]: below the threshold
- pKd [6, 30]: below the threshold
- pKd [7, 30]: below the threshold
- pKd [8, 30]: below the threshold
- pKd [9, 30]: below the threshold
- pKd [10, 30]: 3.96
- pKd [11, 30]: below the threshold
- pKd [12, 30]: below the threshold
- pKd [13, 30]: below the threshold
- pKd [14, 30]: below the threshold
- pKd [15, 30]: below the threshold
- pKd [16, 30]: 4.07
- pKd [17, 30]: below the threshold
- pKd [18, 30]: below the threshold
- pKd [19, 30]: below the threshold
- pKd [20, 30]: below the threshold
- pKd [21, 30]: below the threshold
- pKd [22, 30]: below the threshold
- pKd [23, 30]: below the threshold
- pKd [24, 30]: below the threshold
- pKd [25, 30]: below the threshold
- pKd [26, 30]: below the threshold
- pKd [27, 30]: below the threshold

From PMC9482650, “Quantitative fragmentomics allow affinity mapping of interactomes” (Nature Communications, 2022)
